Assay [1] concerns EGR1, ARC, and NOS1 mRNA transcripts. In words: Fluorescent in situ hybridization of mRNA transcripts in EAE mouse cortex. In kind it is in vivo, SJL/elite mice. As to conditions: across the three groups, n=5. The protocol: Coronal brain sections (5 μm thickness) from mid- and hind-brain were sectioned and washed three times in PBS before mounting on gelatin-coated glass slides (Superfrost Plus, Thermo Fisher Scientific). Tissue was allowed to dry at RT and then stored at −20° C. until use. Fluorescent in situ hybridization (FISH) was performed using RNAscope® Technology 2.0, Advanced Cell Diagnostics (ACD), Hayward, Calif.) Multiplex Reagent Kit V2. See Vasquez, J. J.; Hussien, R.; Aguilar-Rodriguez, B.; Junger, H.; Dobi, D.; Henrich, T. J.; Thanh, C.; Gibson, E.; Hogan, L. E.; McCune, J.; Hunt, P. W.; Stoddart, C. A.; Laszik, Z. G. Elucidating the Burden of HIV in Tissues Using Multiplexed Immunofluorescence and In Situ Hybridization: Methods for the Single-Cell Phenotypic Characterization of Cells Harboring HIV In Situ. J Histochem Cytochem 2018, 66, (6), 427-446; Gershon, T. R.; Crowther, A. J.; Liu, H.; Miller, C. R.; Deshmukh, M. Cerebellar granule neuron progenitors are the source of Hk2 in the postnatal cerebellum. Cancer Metab 2013, 1, (1), 15; and Smith, P. A.; Schmid, C.; Zurbruegg, S.; Jivkov, M.; Doelemeyer, A.; Theil, D.; Dubost, V.; Beckmann, N. Fingolimod inhibits brain atrophy and promotes brain-derived neurotrophic factor in an animal model of multiple sclerosis. J Neuroimmunol 2018, 318, 103-113. […]

The next assay deals with SJL/elite EAE mice. In words: Suppression of EAE relapse, clinical scores. As to conditions: BDNF 5.71 nmol/kg and/or ADTC5 10 μmol/kg i.v. In kind it is in vivo. The protocol: EAE Mouse Model: EAE disease in animals (5-8-week-old SJL/elite female mice, Charles River) was stimulated by injecting 200 μg of PLP139-151 peptide in a 0.2 mL emulsion containing equal volumes of PBS and complete Freund's adjuvant (CFA) with killed mycobacterium tuberculosis strain H37RA (Difco, Detroit, Mich.; final concentration 4 mg/mL) as described in Kobayashi, N.; Kiptoo, P.; Kobayashi, H.; Ridwan, R.; Brocke, S.; Siahaan, T. J. Prophylactic and therapeutic suppression of experimental autoimmune encephalomyelitis by a novel bifunctional peptide inhibitor. Clin Immunol 2008, 129, (1), 69-79 and Kobayashi, N.; Kobayashi, H.; Gu, L.; Malefyt, T.; Siahaan, T. J. Antigen-specific suppression of experimental autoimmune encephalomyelitis by a novel bifunctional peptide inhibitor. J Pharmacol Exp Ther 2007, 322, (2), 879-86. Briefly, […] of PLP/CFA emulsion was administered to four different regions above the shoulders and the flanks on Day 0 followed by intraperitoneal injection of 200 ng of pertussis toxin (List Biological Laboratories, Campbell, Calif.) on Days 0 and 2. Clinical scores that reflect the disease progression were determined using an 11-point scale with 0.5 increments ranging from 0 to 5; 0 being no apparent disease and 5 being moribund. On Day 21, mice were randomly separated into […]: (i) BDNF (5.7 nmol/kg)+ADTC5 (10 μmol/kg; n=7), (ii) BDNF alone (5.71 nmol/kg, n=6), (iii) ADTC5 alone (10 μmol/kg; n=5), and (iv) vehicle (n=5). All mice received 8 intravenous injections every 4 days beginning on Day 21. The mice were euthanized via CO2 inhalation on Day 55. Area under the curve (AUC) calculations were used to compare clinical scores across groups; AUC calculations were performed using the trapezoid rule from Days 21 to 55.

B1: BDNF: recombinant brain-derived neurotrophic factor (13 kDa monomer), Peprotech (protein, UniProt P23560 19-247, looked up)
Neurotrophic factor BDNF …: APMKEANIRGQGGLAYPGVRTHGTLESVNGPKAGSRGLTSLADTFEHVIEELLDEDQKVRPNEENNKDADLYTSRVMLSSQVPLEPPLLFLLEEYKNYLDAANMSMRVRRHSDPARRGELSVCDSISEWVTAADKKTAVDMSGGTVTVLEKVPVSKGQLKQYFYETKCNPMGYTKEGCRGIDKRHWNSQCRTTQSYVRALTMDSKKRIGWRFIRIDTSCVCTLTIKRGR
For B1, the “NOS mRNA expression” value in assay [1] is given as “no significant difference”. For the same molecule, the “locomotion / paralysis observed” value in the assay with SJL/elite EAE mice (8 injections) was “partial or full hind leg paralysis and full tail paralysis”. Further, in the assay with SJL/elite EAE mice (8 injections every 4 days from day 21, compared with other groups/vehicle), the “EAE clinical body scores” value is “no significant difference”.

The values above are taken from patent US20220227815A1, “COMPOSITIONS AND METHODS USEFUL IN TREATING BRAIN DISEASES” (University of Kansas, priority 2019, published 2022).
